# Results as given in PMC2796168 (2009).
# B1: Evasin-1 WT (natural protein)
# chain: EDDEDYGDLGGCPFLVAENKTGYPTIVACKQDCNGTTETAPNGTRCFSIGDEGLRRMTANLPYDCPLGQCSNGDCIPKETYEVCYRRNWRDKKN
# B2: CCL3 (ligand)
# chain: SLAADTPTACCFSYTSRQIPQNFIADYFETSSQCSKPGVIFLTKRSRQVCADPSEEWVQKYVSDLELSA
# Columns and labels:
# [1] = target: B1; experiment: SPR
# [2] = target: B1; experiment: SPR
# [3] = target: B2; experiment: SPR; immobilized CCL3
# [4] = target: B2; experiment: SPR; immobilized CCL3
# [5] = target: T1, Evasin-1 F14A W89A (Rhipicephalus sanguineus, UniProt P0C8E7 21-114, F14A | W89A); experiment: SPR; immobilized CCL3
# [6] = target: T1, Evasin-1 F14A W89A; experiment: SPR; immobilized CCL3; remark: listed apart in the source
Binder,koff [1],Kd [2],koff [3],Kd [4],koff [5],Kd [6]
Δ4CCL3 (ligand) ADTPTACCFSYTSRQIPQNFIADYFETSSQCSKPGVIFLTKRSRQVCADPSEEWVQKYVSDLELSA,0.00041 s⁻¹,0.17 nM,–,–,–,–
"CCL18 (protein, disulfide (positions not given here)) AQVGTNKELCCLVYTSWQIPQKFIVDYSETSPQCPKPGVILLTKRGRQICADPNKKWVQKYISDLKLNA",0.0111 s⁻¹,3.21 nM,–,–,–,–
B1,–,–,0.00276 s⁻¹,8 nM,–,–
B2,0.00243 s⁻¹,0.12 nM,–,–,0.0146 s⁻¹,32.2 nM
"CCL4 (protein, disulfide (positions not given here)) APMGSDPPTACCFSYTARKLPRNFVVDYYETSSLCSQPAVVFQTKRSKQVCADPSESWVQEYVYDLELN",0.0022 s⁻¹,0.51 nM,–,–,–,–
CCL3/CCL5 chimera (ligand) ASLAADTPTACCFAYIARPLPRAHIKEYFYTSGKCSNPAVVFVTRKNRQVCANPEKKWVREYINSLEMS,0.0038 s⁻¹,1.02 nM,–,–,–,–
